From US20240067696A1 (ZEALAND PHARMA A S, published 2024)
Non-standard residues stand in square brackets, D forms with d. Dab = NCC[C@H](N)C(=O)O; Aib = CC(C)(N)C(=O)O

B1: Compound 31 (peptide)
peptide: H-HSQGTFTSDYSKYLD[Aib]ARAESFVKWLEST-NH2
SMILES: CC(C)C[C@H](NC(=O)[C@H](Cc1c[nH]c2ccccc12)NC(=O)[C@H](CCCCN)NC(=O)[C@@H](NC(=O)[C@H](Cc1ccccc1)NC(=O)[C@H](CO)NC(=O)[C@H](CCC(=O)O)NC(=O)[C@H](C)NC(=O)[C@H](CCCNC(=N)N)NC(=O)[C@H](C)NC(=O)C(C)(C)NC(=O)[C@H](CC(=O)O)NC(=O)[C@H](CC(C)C)NC(=O)[C@H](Cc1ccc(O)cc1)NC(=O)[C@H](CCCCN)NC(=O)[C@H](CO)NC(=O)[C@H](Cc1ccc(O)cc1)NC(=O)[C@H](CC(=O)O)NC(=O)[C@H](CO)NC(=O)[C@@H](NC(=O)[C@H](Cc1ccccc1)NC(=O)[C@@H](NC(=O)CNC(=O)[C@H](CCC(N)=O)NC(=O)[C@H](CO)NC(=O)[C@@H](N)Cc1c[nH]cn1)[C@@H](C)O)[C@@H](C)O)C(C)C)C(=O)N[C@@H](CCC(=O)O)C(=O)N[C@@H](CO)C(=O)N[C@H](C(N)=O)[C@@H](C)O
B2: Compound 32 (peptide)
peptide: H-HS[Dab](Ac)GTFTSDYSKYLD[Aib]ARAESFVKWLEST-OH
SMILES: CC(=O)NCC[C@H](NC(=O)[C@H](CO)NC(=O)[C@@H](N)Cc1c[nH]cn1)C(=O)NCC(=O)N[C@H](C(=O)N[C@@H](Cc1ccccc1)C(=O)N[C@H](C(=O)N[C@@H](CO)C(=O)N[C@@H](CC(=O)O)C(=O)N[C@@H](Cc1ccc(O)cc1)C(=O)N[C@@H](CO)C(=O)N[C@@H](CCCCN)C(=O)N[C@@H](Cc1ccc(O)cc1)C(=O)N[C@@H](CC(C)C)C(=O)N[C@@H](CC(=O)O)C(=O)NC(C)(C)C(=O)N[C@@H](C)C(=O)N[C@@H](CCCNC(=N)N)C(=O)N[C@@H](C)C(=O)N[C@@H](CCC(=O)O)C(=O)N[C@@H](CO)C(=O)N[C@@H](Cc1ccccc1)C(=O)N[C@H](C(=O)N[C@@H](CCCCN)C(=O)N[C@@H](Cc1c[nH]c2ccccc12)C(=O)N[C@@H](CC(C)C)C(=O)N[C@@H](CCC(=O)O)C(=O)N[C@@H](CO)C(=O)N[C@H](C(=O)O)[C@@H](C)O)C(C)C)[C@@H](C)O)[C@@H](C)O
B3: Compound 36 (peptide)
peptide: H-HSQGTFTSDYSKYLD[Aib]ARAEEFVKWLEET-OH
SMILES: CC(C)C[C@H](NC(=O)[C@H](Cc1c[nH]c2ccccc12)NC(=O)[C@H](CCCCN)NC(=O)[C@@H](NC(=O)[C@H](Cc1ccccc1)NC(=O)[C@H](CCC(=O)O)NC(=O)[C@H](CCC(=O)O)NC(=O)[C@H](C)NC(=O)[C@H](CCCNC(=N)N)NC(=O)[C@H](C)NC(=O)C(C)(C)NC(=O)[C@H](CC(=O)O)NC(=O)[C@H](CC(C)C)NC(=O)[C@H](Cc1ccc(O)cc1)NC(=O)[C@H](CCCCN)NC(=O)[C@H](CO)NC(=O)[C@H](Cc1ccc(O)cc1)NC(=O)[C@H](CC(=O)O)NC(=O)[C@H](CO)NC(=O)[C@@H](NC(=O)[C@H](Cc1ccccc1)NC(=O)[C@@H](NC(=O)CNC(=O)[C@H](CCC(N)=O)NC(=O)[C@H](CO)NC(=O)[C@@H](N)Cc1c[nH]cn1)[C@@H](C)O)[C@@H](C)O)C(C)C)C(=O)N[C@@H](CCC(=O)O)C(=O)N[C@@H](CCC(=O)O)C(=O)N[C@H](C(=O)O)[C@@H](C)O
B4: Compound 35 (peptide)
peptide: H-HSQGTFTSDYSKYLD[Aib]ARAEEFVAWLEST-OH
SMILES: CC(C)C[C@H](NC(=O)[C@H](Cc1c[nH]c2ccccc12)NC(=O)[C@H](C)NC(=O)[C@@H](NC(=O)[C@H](Cc1ccccc1)NC(=O)[C@H](CCC(=O)O)NC(=O)[C@H](CCC(=O)O)NC(=O)[C@H](C)NC(=O)[C@H](CCCNC(=N)N)NC(=O)[C@H](C)NC(=O)C(C)(C)NC(=O)[C@H](CC(=O)O)NC(=O)[C@H](CC(C)C)NC(=O)[C@H](Cc1ccc(O)cc1)NC(=O)[C@H](CCCCN)NC(=O)[C@H](CO)NC(=O)[C@H](Cc1ccc(O)cc1)NC(=O)[C@H](CC(=O)O)NC(=O)[C@H](CO)NC(=O)[C@@H](NC(=O)[C@H](Cc1ccccc1)NC(=O)[C@@H](NC(=O)CNC(=O)[C@H](CCC(N)=O)NC(=O)[C@H](CO)NC(=O)[C@@H](N)Cc1c[nH]cn1)[C@@H](C)O)[C@@H](C)O)C(C)C)C(=O)N[C@@H](CCC(=O)O)C(=O)N[C@@H](CO)C(=O)N[C@H](C(=O)O)[C@@H](C)O
B5: Compound 29 (peptide)
peptide: H-HSQGTFTSDYSKYLD[Aib]ARAKSFVEWLEKT-OH
SMILES: CC(C)C[C@H](NC(=O)[C@H](Cc1c[nH]c2ccccc12)NC(=O)[C@H](CCC(=O)O)NC(=O)[C@@H](NC(=O)[C@H](Cc1ccccc1)NC(=O)[C@H](CO)NC(=O)[C@H](CCCCN)NC(=O)[C@H](C)NC(=O)[C@H](CCCNC(=N)N)NC(=O)[C@H](C)NC(=O)C(C)(C)NC(=O)[C@H](CC(=O)O)NC(=O)[C@H](CC(C)C)NC(=O)[C@H](Cc1ccc(O)cc1)NC(=O)[C@H](CCCCN)NC(=O)[C@H](CO)NC(=O)[C@H](Cc1ccc(O)cc1)NC(=O)[C@H](CC(=O)O)NC(=O)[C@H](CO)NC(=O)[C@@H](NC(=O)[C@H](Cc1ccccc1)NC(=O)[C@@H](NC(=O)CNC(=O)[C@H](CCC(N)=O)NC(=O)[C@H](CO)NC(=O)[C@@H](N)Cc1c[nH]cn1)[C@@H](C)O)[C@@H](C)O)C(C)C)C(=O)N[C@@H](CCC(=O)O)C(=O)N[C@@H](CCCCN)C(=O)N[C@H](C(=O)O)[C@@H](C)O
B6: Compound 34 (peptide)
peptide: H-HSQGTFTSDYSKYLD[Aib]ARAEKFVEWLEST-OH
SMILES: CC(C)C[C@H](NC(=O)[C@H](Cc1c[nH]c2ccccc12)NC(=O)[C@H](CCC(=O)O)NC(=O)[C@@H](NC(=O)[C@H](Cc1ccccc1)NC(=O)[C@H](CCCCN)NC(=O)[C@H](CCC(=O)O)NC(=O)[C@H](C)NC(=O)[C@H](CCCNC(=N)N)NC(=O)[C@H](C)NC(=O)C(C)(C)NC(=O)[C@H](CC(=O)O)NC(=O)[C@H](CC(C)C)NC(=O)[C@H](Cc1ccc(O)cc1)NC(=O)[C@H](CCCCN)NC(=O)[C@H](CO)NC(=O)[C@H](Cc1ccc(O)cc1)NC(=O)[C@H](CC(=O)O)NC(=O)[C@H](CO)NC(=O)[C@@H](NC(=O)[C@H](Cc1ccccc1)NC(=O)[C@@H](NC(=O)CNC(=O)[C@H](CCC(N)=O)NC(=O)[C@H](CO)NC(=O)[C@@H](N)Cc1c[nH]cn1)[C@@H](C)O)[C@@H](C)O)C(C)C)C(=O)N[C@@H](CCC(=O)O)C(=O)N[C@@H](CO)C(=O)N[C@H](C(=O)O)[C@@H](C)O
B7: Compound 33 (peptide)
peptide: H-HSQGTFTSDYSKYLD[Aib]ARAEEFVSWLEKT-OH
SMILES: CC(C)C[C@H](NC(=O)[C@H](Cc1c[nH]c2ccccc12)NC(=O)[C@H](CO)NC(=O)[C@@H](NC(=O)[C@H](Cc1ccccc1)NC(=O)[C@H](CCC(=O)O)NC(=O)[C@H](CCC(=O)O)NC(=O)[C@H](C)NC(=O)[C@H](CCCNC(=N)N)NC(=O)[C@H](C)NC(=O)C(C)(C)NC(=O)[C@H](CC(=O)O)NC(=O)[C@H](CC(C)C)NC(=O)[C@H](Cc1ccc(O)cc1)NC(=O)[C@H](CCCCN)NC(=O)[C@H](CO)NC(=O)[C@H](Cc1ccc(O)cc1)NC(=O)[C@H](CC(=O)O)NC(=O)[C@H](CO)NC(=O)[C@@H](NC(=O)[C@H](Cc1ccccc1)NC(=O)[C@@H](NC(=O)CNC(=O)[C@H](CCC(N)=O)NC(=O)[C@H](CO)NC(=O)[C@@H](N)Cc1c[nH]cn1)[C@@H](C)O)[C@@H](C)O)C(C)C)C(=O)N[C@@H](CCC(=O)O)C(=O)N[C@@H](CCCCN)C(=O)N[C@H](C(=O)O)[C@@H](C)O
B8: Compound 30 (peptide)
peptide: H-HSQGTFTSDYSKYLD[Aib]ARAESFVKWLESA-OH
SMILES: CC(C)C[C@H](NC(=O)[C@H](Cc1c[nH]c2ccccc12)NC(=O)[C@H](CCCCN)NC(=O)[C@@H](NC(=O)[C@H](Cc1ccccc1)NC(=O)[C@H](CO)NC(=O)[C@H](CCC(=O)O)NC(=O)[C@H](C)NC(=O)[C@H](CCCNC(=N)N)NC(=O)[C@H](C)NC(=O)C(C)(C)NC(=O)[C@H](CC(=O)O)NC(=O)[C@H](CC(C)C)NC(=O)[C@H](Cc1ccc(O)cc1)NC(=O)[C@H](CCCCN)NC(=O)[C@H](CO)NC(=O)[C@H](Cc1ccc(O)cc1)NC(=O)[C@H](CC(=O)O)NC(=O)[C@H](CO)NC(=O)[C@@H](NC(=O)[C@H](Cc1ccccc1)NC(=O)[C@@H](NC(=O)CNC(=O)[C@H](CCC(N)=O)NC(=O)[C@H](CO)NC(=O)[C@@H](N)Cc1c[nH]cn1)[C@@H](C)O)[C@@H](C)O)C(C)C)C(=O)N[C@@H](CCC(=O)O)C(=O)N[C@@H](CO)C(=O)N[C@@H](C)C(=O)O
B9: Compound 37 (peptide)
peptide: H-HSQGTFTSDYSKYLE[Aib]ARAEEFVKWLEST-OH
SMILES: CC(C)C[C@H](NC(=O)[C@H](Cc1c[nH]c2ccccc12)NC(=O)[C@H](CCCCN)NC(=O)[C@@H](NC(=O)[C@H](Cc1ccccc1)NC(=O)[C@H](CCC(=O)O)NC(=O)[C@H](CCC(=O)O)NC(=O)[C@H](C)NC(=O)[C@H](CCCNC(=N)N)NC(=O)[C@H](C)NC(=O)C(C)(C)NC(=O)[C@H](CCC(=O)O)NC(=O)[C@H](CC(C)C)NC(=O)[C@H](Cc1ccc(O)cc1)NC(=O)[C@H](CCCCN)NC(=O)[C@H](CO)NC(=O)[C@H](Cc1ccc(O)cc1)NC(=O)[C@H](CC(=O)O)NC(=O)[C@H](CO)NC(=O)[C@@H](NC(=O)[C@H](Cc1ccccc1)NC(=O)[C@@H](NC(=O)CNC(=O)[C@H](CCC(N)=O)NC(=O)[C@H](CO)NC(=O)[C@@H](N)Cc1c[nH]cn1)[C@@H](C)O)[C@@H](C)O)C(C)C)C(=O)N[C@@H](CCC(=O)O)C(=O)N[C@@H](CO)C(=O)N[C@H](C(=O)O)[C@@H](C)O

biological target: human glucagon receptor (human, UniProt P47871 26-477); assay: cell-based or functional assay
Sequence (P47871 26-477): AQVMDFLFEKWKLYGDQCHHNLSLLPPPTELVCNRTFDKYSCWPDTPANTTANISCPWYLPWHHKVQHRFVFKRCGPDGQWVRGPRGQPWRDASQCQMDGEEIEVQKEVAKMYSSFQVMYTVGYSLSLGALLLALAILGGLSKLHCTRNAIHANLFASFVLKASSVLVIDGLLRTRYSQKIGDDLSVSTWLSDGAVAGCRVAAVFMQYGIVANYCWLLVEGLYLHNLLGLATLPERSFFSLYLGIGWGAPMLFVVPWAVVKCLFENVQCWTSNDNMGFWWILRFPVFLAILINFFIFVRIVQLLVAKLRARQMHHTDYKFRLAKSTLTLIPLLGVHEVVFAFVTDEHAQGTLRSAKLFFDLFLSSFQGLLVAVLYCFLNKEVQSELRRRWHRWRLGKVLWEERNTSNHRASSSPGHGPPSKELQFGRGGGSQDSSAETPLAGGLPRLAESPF

Row | Binder | GCG-R EC50 in vitro [nM] (cAMP, AlphaScreen, HEK293 cells expressing human Glucagon-R)
1 | B1 | 0.0072 nM
2 | B2 | 0.0093 nM
3 | B3 | 0.01 nM
4 | B4 | 0.014 nM
5 | B5 | 0.023 nM
6 | B6 | 0.028 nM
7 | B7 | 0.044 nM
8 | B8 | 0.016 nM
9 | B9 | 0.094 nM
